± gives the uncertainty stated by the source.
Assay: self-splicing fitness, log relative to wild type (ln ratio); higher = more splicing; Tetrahymena group I intron in knt gene, E. coli kanamycin selection, DiMSum; sequences stand for … in CUCUCU…GGAGGGAAAAGUUAUCAGGCAUGCACCUGGUAGCUAGUCUUUAAACCAAUAGAUUGCAUCGGUUUAAAAGGCAAGACCGUCAAAUUGCGGGAAAGGGGUCAACAGCCGUUCAGUACCAAGUCUCAGGGGAAACUUUGAGAUGGCCUUGCAAAGGGUAUGGUAAUAAGCUGACGGACAUGGUCCUAACCACGCAGCCAAGUCCUAAGUCAACAGAUCUUCUGUUGAUAUGGAUGCAGUUCACAGACUAAAUGUCGGUCGGGGAAGAUGUAUUCUUCUCAUAAGAUAUAGUCGGACCUCUCCUUAAUGGGAGCUAGCGGAUGAAGUGAUGCAACACUGGAGCCGCUGGGAACUAAUUUGUAUGCGAAAGUAUAUUGAUUAGUUUUGGAGUACUCGUGGUCG
In short: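 Library with all eight P1ex-region intron nucleotides randomised, intron inside the knt kanamycin-resistance gene on pET-22b(+), in E. coli BL21(DE3). Cells grew overnight at 37°C or 30°C on LB agar with or without 25 μg/mL kanamycin (plus 100 μg/mL carbenicillin, 50 μM IPTG, 0.2% rhamnose), in six replicate transformations. Pooled colonies were amplicon-sequenced on Illumina HiSeq 2500. DiMSum fitness is the error-weighted combination of wild-type-normalised replicate fold changes, kanamycin versus none.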

Sequence	self-splicing fitness (ln) (30 °C)	self-splicing fitness (ln) (37 °C)
AUCAAGCAAUAUUACGGGGG	-3.79 ± 0.22	-2.64 ± 0.15
AUCAAGCAAUAUUACGGGUU	-3.44 ± 0.14	-1.22 ± 0.11
AUCAAGCAAUAUUACGUAAC	-2.98 ± 0.16	-2.18 ± 0.19
AUCAAGCAAUAUUACGUAUU	-2.7 ± 0.09	-1.5 ± 0.11
AUCAAGCAAUAUUACGUCGC	-4 ± 0.2	-2.65 ± 0.11
AUCAAGCAAUAUUACGUCUU	-1.86 ± 0.072	-0.301 ± 0.073
AUCAAGCAAUAUUACGUGAC	-2.04 ± 0.12	-1.07 ± 0.11
AUCAAGCAAUAUUACGUGAG	-0.619 ± 0.046	0.349 ± 0.073
AUCAAGCAAUAUUACGUGUU	-3.23 ± 0.11	-1.58 ± 0.097
AUCAAGCAAUAUUACGUUUU	-1.6 ± 0.097	-0.791 ± 0.12
AUCCAGCAAUAUUACGAAAG	-3.77 ± 0.18	-2.76 ± 0.21
AUCCAGCAAUAUUACGACCA	-0.725 ± 0.15	-0.224 ± 0.17
AUCCAGCAAUAUUACGCAAG	-2.75 ± 0.18	0.207 ± 0.14
AUCCAGCAAUAUUACGCACC	-1.19 ± 0.13	0.657 ± 0.17
AUCCAGCAAUAUUACGCGAC	-2.56 ± 0.14	-1.86 ± 0.18
AUCCAGCAAUAUUACGCGGA	-3.7 ± 0.25	-2.5 ± 0.17
AUCCAGCAAUAUUACGCUCG	-1.75 ± 0.26	-0.356 ± 0.22
AUCCAGCAAUAUUACGCUUA	-0.592 ± 0.064	0.389 ± 0.094
AUCCAGCAAUAUUACGCUUG	-3.27 ± 0.2	-2.7 ± 0.25
AUCCAGCAAUAUUACGGACA	-0.527 ± 0.099	-0.096 ± 0.11
AUCCAGCAAUAUUACGGACC	-1.71 ± 0.13	0.282 ± 0.13
AUCCAGCAAUAUUACGGAGC	-3.09 ± 0.21	-2.2 ± 0.24
AUCCAGCAAUAUUACGGCCA	-0.362 ± 0.071	-0.298 ± 0.084
AUCCAGCAAUAUUACGGCGG	-1.04 ± 0.09	-0.327 ± 0.11

Sequence	self-splicing fitness (ln) (30 °C)	self-splicing fitness (ln) (37 °C)
AUCCAGCAAUAUUACGGCGU	-0.0553 ± 0.058	0.269 ± 0.07
AUCCAGCAAUAUUACGGGAG	-1.63 ± 0.066	-1.32 ± 0.074
AUCCAGCAAUAUUACGGGGC	-2.89 ± 0.14	-2.82 ± 0.26
AUCCAGCAAUAUUACGGUCU	-0.68 ± 0.053	-0.109 ± 0.074
AUCCAGCAAUAUUACGUAAC	-1.82 ± 0.13	-1.91 ± 0.22
AUCCAGCAAUAUUACGUAGA	-0.783 ± 0.073	-0.0552 ± 0.12
AUCCAGCAAUAUUACGUCAG	-2.99 ± 0.11	-2.15 ± 0.12
AUCCAGCAAUAUUACGUCCC	-0.894 ± 0.22	-1.1 ± 0.28
AUCCAGCAAUAUUACGUGCA	-1.63 ± 0.091	-0.196 ± 0.091
AUCCAGCAAUAUUACGUGCC	-3.16 ± 0.21	-1.09 ± 0.16
AUCCAGCAAUAUUACGUGCG	-1.65 ± 0.078	-0.875 ± 0.076
AUCCAGCAAUAUUACGUGUG	-1.79 ± 0.057	-0.983 ± 0.06
AUCGAGCAAUAUUACGAAUU	-3.57 ± 0.25	-2.1 ± 0.2
AUCGAGCAAUAUUACGACGG	-3.75 ± 0.44	-1.7 ± 0.33
AUCGAGCAAUAUUACGAGUU	-2.66 ± 0.23	-1.31 ± 0.18
AUCGAGCAAUAUUACGCAAG	-3.22 ± 0.43	-1.72 ± 0.26
AUCGAGCAAUAUUACGCGGC	-2.86 ± 0.5	-3.13 ± 0.47
AUCGAGCAAUAUUACGGCGG	-2.61 ± 0.14	-1.36 ± 0.14
AUCGAGCAAUAUUACGGGAA	-2.59 ± 0.24	-2.4 ± 0.22
AUCGAGCAAUAUUACGGGUC	-3.91 ± 0.19	-3.15 ± 0.18
AUCGAGCAAUAUUACGGUGG	–	-2.04 ± 0.36
AUCGAGCAAUAUUACGGUUG	-3.96 ± 0.42	-3.32 ± 0.37
AUCGAGCAAUAUUACGUCAG	-3.36 ± 0.21	-2.99 ± 0.22
AUCGAGCAAUAUUACGUCUC	-3.13 ± 0.22	-2.18 ± 0.33

Sequence	self-splicing fitness (ln) (30 °C)	self-splicing fitness (ln) (37 °C)
AUCGAGCAAUAUUACGUGGC	-2.91 ± 0.26	-2.52 ± 0.49
AUCGAGCAAUAUUACGUGUA	-3.46 ± 0.33	-2.11 ± 0.18
AUCGAGCAAUAUUACGUUAG	-3.73 ± 0.29	-0.583 ± 0.21
AUCGAGCAAUAUUACGUUCU	-1.32 ± 0.074	-1 ± 0.089
AUCGAGCAAUAUUACGUUGA	-3.44 ± 0.27	-2.94 ± 0.22
AUCGAGCAAUAUUACGUUGG	-4.07 ± 0.42	-2.37 ± 0.31
AUCUAGCAAUAUUACGAUUU	-0.629 ± 0.084	0.317 ± 0.11
AUCUAGCAAUAUUACGCAAC	-3.38 ± 0.37	-2.06 ± 0.32
AUCUAGCAAUAUUACGCACU	-1.42 ± 0.17	0.0807 ± 0.17
AUCUAGCAAUAUUACGCAUC	-4.16 ± 0.47	-2.81 ± 0.4
AUCUAGCAAUAUUACGCCGU	-0.173 ± 0.089	-0.324 ± 0.1
AUCUAGCAAUAUUACGCCUA	-1.09 ± 0.16	-0.389 ± 0.16
AUCUAGCAAUAUUACGCGAG	-1.92 ± 0.14	-0.183 ± 0.1
AUCUAGCAAUAUUACGGCGG	-1.12 ± 0.083	-1.15 ± 0.1
AUCUAGCAAUAUUACGGGCA	-1.25 ± 0.15	-0.862 ± 0.18
AUCUAGCAAUAUUACGGGGA	-1.48 ± 0.073	-1.03 ± 0.087
AUCUAGCAAUAUUACGGUAA	-0.976 ± 0.12	-0.736 ± 0.14
AUCUAGCAAUAUUACGUAGA	-2.39 ± 0.12	-0.832 ± 0.11
AUCUAGCAAUAUUACGUCAA	-2.6 ± 0.29	-1.68 ± 0.21
AUCUAGCAAUAUUACGUCAC	-4.04 ± 0.26	-2.11 ± 0.2
AUCUAGCAAUAUUACGUUGG	-3.4 ± 0.19	-1.88 ± 0.19
AUGAAGCAAUAUUACGAACC	0.0578 ± 0.14	0.124 ± 0.17
AUGAAGCAAUAUUACGACCC	-1.6 ± 0.22	–
AUGAAGCAAUAUUACGAUGA	-0.515 ± 0.07	0.274 ± 0.089

Sequence	self-splicing fitness (ln) (30 °C)	self-splicing fitness (ln) (37 °C)
AUGAAGCAAUAUUACGAUUA	-0.416 ± 0.082	0.189 ± 0.12
AUGAAGCAAUAUUACGAUUC	-2.23 ± 0.1	-1.33 ± 0.14
AUGAAGCAAUAUUACGCAGA	-1.63 ± 0.12	-0.868 ± 0.1
AUGAAGCAAUAUUACGCGCC	-0.426 ± 0.085	-0.127 ± 0.11
AUGAAGCAAUAUUACGCGUC	-4.16 ± 0.2	-1.48 ± 0.13
AUGAAGCAAUAUUACGCUUA	-0.65 ± 0.061	-0.151 ± 0.075
AUGAAGCAAUAUUACGGACA	-0.277 ± 0.077	0.5 ± 0.11
AUGAAGCAAUAUUACGGGGA	-2.4 ± 0.15	-1.31 ± 0.17
AUGAAGCAAUAUUACGGUGC	-2.3 ± 0.15	-1.99 ± 0.19
AUGAAGCAAUAUUACGUAGC	-4.32 ± 0.42	-1.45 ± 0.27
AUGAAGCAAUAUUACGUGUU	-1.64 ± 0.063	-1.64 ± 0.078
AUGCAGCAAUAUUACGACAU	-0.23 ± 0.012	0.215 ± 0.032
AUGCAGCAAUAUUACGACGU	-0.0321 ± 0.072	0.706 ± 0.083
AUGCAGCAAUAUUACGAGGA	-3.57 ± 0.28	-2.9 ± 0.21
AUGCAGCAAUAUUACGAGUG	-2.88 ± 0.11	-1.64 ± 0.11
AUGCAGCAAUAUUACGCAAG	-1.92 ± 0.091	-1.72 ± 0.096
AUGCAGCAAUAUUACGCAUA	–	-2.06 ± 0.38
AUGCAGCAAUAUUACGCAUC	–	-2.67 ± 0.28
AUGCAGCAAUAUUACGCCCA	-1.11 ± 0.12	0.0949 ± 0.14
AUGCAGCAAUAUUACGCUCU	-1.34 ± 0.084	0.22 ± 0.084
AUGCAGCAAUAUUACGCUUG	-3.06 ± 0.12	-2.85 ± 0.18
AUGCAGCAAUAUUACGCUUU	-2.72 ± 0.11	-1.75 ± 0.11
AUGCAGCAAUAUUACGGAAA	-1.86 ± 0.23	-2.17 ± 0.28
AUGCAGCAAUAUUACGGUAU	-4.16 ± 0.27	-1.42 ± 0.14

From the supplement of paper PMC7877785
